EP0530937A1

Key:
[1] = target: collagen receptor on human platelets (human); assay: adhesion of platelets to a plate coated with collagen type I with 10 µl Superose-pool (0.5 mg protein/ml), 2 mM Mg2+
[2] = target: collagen receptor on human platelets (human); assay: adhesion of platelets to a plate coated with collagen type I with 50 µl Superose-pool (0.5 mg protein/ml), 2 mM Mg2+
[3] = target: collagen receptor on MTLn3 cells (rat mammary tumor cells) (rat); assay: adhesion of 51Cr-labelled MTLn3 cells to wells coated with collagen type III with 2 µl Superose-pool (0.5 mg protein/ml)
[4] = target: collagen receptor on MTLn3 cells (rat mammary tumor cells) (rat); assay: adhesion of 51Cr-labelled MTLn3 cells to wells coated with collagen type III with 10 µl Superose-pool (0.5 mg protein/ml)
[5] = target: collagen receptor on MTLn3 cells (rat mammary tumor cells) (rat); assay: adhesion of 51Cr-labelled MTLn3 cells to wells coated with collagen type III with 5 µl Superose-pool (0.5 mg protein/ml)

adherent platelets per mm² (adherent platelets per mm²) [1]: 12000 | adherent platelets per mm² (adherent platelets per mm²) [2]: 6500 | cell attachment (cpm) [3]: 2070 cpm | cell attachment (cpm) [4]: 1080 cpm | cell attachment (cpm) [5]: 1610 cpm
Substance: collagen-induced platelet aggregation inhibitor from saliva of Triatoma pallidipennis (as saliva or as partially purified "Superose"-pool)
